The values below come from patent US20080274114A1 (APPLIED MOLECULAR EVOLUTION, published 2008).

Test [1] concerns the target T1, soluble EGFR (sEGFR), amino acids 1-619 of mature human EGFR with (Gly)4Ser linker and (His)6 tag (human, UniProt P00533 25-643, biotinylated with Sulfo-NHS-LC-Biotin in the filter lift and the capture ELISA).
T1 construct: range 1-619; Expressed in CHO-K1 cells; also called biotinylated sEGFR; B-sEGFR
Description: capture filter lift and capture ELISA, biotinylated sEGFR.
Description: Briefly, a filter is coated with a capture reagent (goat anti-human kappa chain antibody), then the coated filter is placed on a plate with phage plaques, from phage which are expressing Fabs. The filter is incubated with the plaques, then the filter is incubated with biotinylated sEGFR, and bound biotinylated sEGFR is detected by binding of Neutravidin-AP and incubation with the detectable alkaline phosphatase substrate.
The filter is submerged for 15 min. The filter is washed three times in PBS. The filter is blocked in 1% BSA in PBS for 1 hour. The filter is washed three times in PBS. The filter is air dried for 10 min. The filter is carefully laid onto phage plate and incubated overnight at 22° C. The filter is carefully lifted off and washed briefly in PBS. The filter is incubated with Biotinylated antigen at 1/1000 dilution into 3% dry milk, PBS, 0.05% Tween 20 for 1 hour at room temperature. The filter is vacuum washed with PBS, 0.05% Tween 20 three times. The filter is incubated with Neutravidin-AP 1/1000 in PBS, 0.05% Tween 20 for 30 min. at room temperature. The filter is vacuum washed with PBS, 0.05% Tween 20 three times. The filter is developed in 10 mls AP substrate (Nitro-blue tetrazolium, 5-Bromo-4-chloro-indolyl phosphate, Pierce, Rockford, Ill.). Plaques are selected based on blue color intensity.
Capture ELISA is used as an assay to detect Fabs which bind sEGFR as follows. […] The wells are washed 3 times with PBS-Tween 20 (0.05%). the wells are blocked with 50 μL/well 1% BSA in PBS-Tween for 1 hour at RT. The wells are washed 3 times with PBS-Tween. […] The plate is incubated at RT for 2 hours. The plate is wash 3 times with PBS-Tween. 50 μL/well biotinylated-sEGFR diluted 1/1000 in PBS-Tween are added and the plate is incubated at RT for 1 hour. The plate is washed 3 times with PBS-Tween.

In test [2] the target is T1, soluble EGFR (sEGFR), amino acids 1-619 …. Description: capture ELISA: binder captured on goat anti-human kappa at varied concentration, biotinylated sEGFR (1/1000) detected with Neutravidin-AP, OD405. (In general: An ELISA detects its analyte on a solid surface through an enzyme-linked reagent.)
Description: Capture ELISA is used as an assay to detect Fabs which bind sEGFR as follows. […] The wells are washed 3 times with PBS-Tween 20 (0.05%). the wells are blocked with 50 μL/well 1% BSA in PBS-Tween for 1 hour at RT. The wells are washed 3 times with PBS-Tween. […] The plate is incubated at RT for 2 hours. The plate is wash 3 times with PBS-Tween. 50 μL/well biotinylated-sEGFR diluted 1/1000 in PBS-Tween are added and the plate is incubated at RT for 1 hour. The plate is washed 3 times with PBS-Tween. 50 μL/well Neutravidin-Alkaline Phosphatase (Neutravidin-AP; Pierce, Rockford, Ill.) diluted 1/1000 in PBS-Tween are added and incubated for 30 min. at RT. The plate is washed 3 times with PBS-Tween. 150 μL/well pNPP substrate (Sigma) is added and incubated at 37° C. until color develops.
For test [3] the target is unchanged. Nature of the test: KinExA, equilibrium, full-length antibody with sEGFR in solution. On the technique in general: In KinExA the mixture passes briefly over coated beads that capture the unbound partner.
Description: (§1) Binding affinity measurements for full-length monoclonal antibodies of the invention are determined using a Sapidyne KINEXA assay. NHS-activated fast-flow sepharose beads (GE Healthcare) are pre-coated with antigen (50 μg anti-EGFR antibody per ml of beads) and blocked with 10 mg/ml BSA in 1 M Tris-HCl, pH 8.0. […] To determine the free antibody present at equilibrium, each sample is passed through the sEGFR-coated beads. The amount of bead-bound antibody is then quantified by passing a solution of fluorescent (Cy5) labeled goat anti-human Fc antibody (Jackson Immuno Research) diluted 1:4000 in running buffer over the beads. The measured fluorescence signal is proportional to the concentration of free antibody at equilibrium. Each concentration of sEGFR is measured in duplicate. The equilibrium dissociation constant (KD) is obtained from non-linear regression of the competition curves using a multiple-curve, one-site homogeneous binding model (KINEXA software).
The target is the same in test [4]. Nature of the test: KinExA, calculated as Kd x kon.
Description: as §1
(§2) The association rate constant (kₒₙ) for sEGFR binding is also determined using a Sapidyne KINEXA assay. Two pM antibody is mixed with 20 pM sEGFR using the same conditions as described above. At various times, samples are probed for free antibody using the conditions described above for equilibrium binding, and then the resulting time dependence is fit using the KINEXA software to determine the association rate (kₒₙ). The dissociation rate constant (koff) is calculated using the expression koff=Kd×kₒₙ.
For test [5] the target is unchanged. Nature of the test: KinExA, full-length antibody with sEGFR in solution.
Description: as §1, §2

Where a chain is given by its changes, count along the chain named.

B1: Fab 4.14 (Fab, V domains shown)
VH: QVQLQESGPGLVKPSETLSLTCTVSGFSLTNWDVHWIRQPPGKGLEWIGNIWSGGNTDYNTPFTSRVTISVDTSKNQFSLKLSSVTAADTAVYYCARALDYYDYDYAYWGQGTMVTVSS
VL: EIVLTQSPDFQSVTPKEKVTITCRASYSIGTNIHWYQQKPDQSPKLLIKYASESISGVPSRFSGSGSGTDFTLTINSLEAEDAATYYCQQNNDWPTTFGGGTKVEIK
notes: Fab
Consider B1, for which, in test [1], the binding result is recorded as “binds”.

B2: Fab 2.38 (Fab, V domains shown)
VH: QVTLKESGPVLVKPTETLTLTCTVSGFSLSNWGVHWIRQPPGKALEWLAVIWSGGNTDYNTPFDSRLTISKDTSKSQVVLTMTNMDPVDTATYYCARALDYYDYDFAYWGQGTMVTVSS
VL: B1 VL with D93E, T97S
notes: Fab
For B2, the binding result in test [1] is “binds”.

B3: Fab 4.21 (Fab, V domains shown)
VH: B1 VH with N50V, Y106F
VL: B1 VL with T97S
notes: Fab
On to B3, for which, in test [2], the EC50 (read off the curve) (commonly the concentration giving half of the maximal effect) is roughly 0.02 µg/mL.

B4: full-length monoclonal antibody VH2.87 (antibody, V domains shown)
VH: B2 VH with G33D, N56A, D64N, D105N
VL: B1 VL with D93N
notes: Full-length antibody with human Fc
Turning to B4, in test [3], the Kd (as a rule, the equilibrium constant for the complex coming apart) amounted to 0.215 pM.

B5: full-length monoclonal antibody VH4.21 (antibody, V domains shown)
VH: B1 VH with N50V, Y106F
VL: B1 VL with T97S
notes: as for B4
Consider B5, for which, in test [4], the koff (as a rule, the first-order rate constant of dissociation) was 2.02e-06 s⁻¹. In addition, in test [5], the kon (usually the second-order rate constant of association) amounted to 1.07e+07 M⁻¹ s⁻¹. In test [3], this molecule displayed a Kd of 0.188 pM.

B6: full-length monoclonal antibody VH2.69 (antibody, V domains shown)
VH: B2 VH with G33D, D64A, D105N
VL: B1 VL with D93N, T97S
notes: as for B4
On to B6, for which the koff in test [4] is 6.51e-06 s⁻¹. Besides, the kon in test [5] was found to be 9.64e+06 M⁻¹ s⁻¹. Besides, in test [3], the Kd turned out to be 0.68 pM.

B7: Fab 2.II.3 (Fab, V domains shown)
VH: B2 VH with G33D, D64T
VL: B1 VL
notes: Fab; also called 2.11.3
In the case of B7, the binding result in test [1] is on record as “binds”.

B8: full-length monoclonal antibody VH4.15 (antibody, V domains shown)
VH: B1 VH with W32Y, D33G
VL: B1 VL with D93E, T97S
notes: as for B4
B8: in test [4], the koff was 1.75e-07 s⁻¹. The kon in test [5] was found to be 1.46e+07 M⁻¹ s⁻¹. In addition, binding in test [3] was characterised by a dissociation constant (Kd) of 0.012 pM.
